Results: patent US20250369983A1

Biological target: full length gp41 HIV protein (Abcam) (human immunodeficiency virus-1 (HIV-1))
Experiment: ELISA titration: plates coated with 1 µg/mL antigen, 2F5 in 4-fold dilutions; y axis without label (absorbance)

Work on “2F5, broadly neutralizing human monoclonal antibody (Polymun Scientific)” yielded an EC50 (read off the curve) of 0.1 mg/L.
